# Measured values published in article PMC11929599.
# Tests used:
# Assay in all cases: two-hybrid
# [1] = target: SePdx R96A fused to T25 (pKT25‐SePdx R96A) (Synechococcus elongatus PCC 7942)
# [2] = target: SePdx Q214A fused to T25 (pKT25‐SePdx Q214A) (Synechococcus elongatus PCC 7942)
# [3] = target: SePdx Y31A fused to T25 (pKT25‐SePdx Y31A) (Synechococcus elongatus PCC 7942)
# [4] = target: SePdx D28A fused to T25 (pKT25‐SePdx D28A) (Synechococcus elongatus PCC 7942)
# [5] = target: SePdx R189A fused to T25 (pKT25‐SePdx R189A) (Synechococcus elongatus PCC 7942)
# [6] = target: SePdx T5A fused to T25 (pKT25‐SePdx T5A) (Synechococcus elongatus PCC 7942)
# [7] = target: SePdx Y144A fused to T25 (pKT25‐SePdx Y144A) (Synechococcus elongatus PCC 7942)
# [8] = target: SePdx G299A fused to T25 (pKT25‐SePdx G299A) (Synechococcus elongatus PCC 7942)
Substance,decrease of β‐galactosidase activity against WT SePdx [1] [%],decrease of β‐galactosidase activity against WT SePdx [2] [%],decrease of β‐galactosidase activity against WT SePdx [3] [%],decrease of β‐galactosidase activity against WT SePdx [4] [%],decrease of β‐galactosidase activity against WT SePdx [5] [%],increase of β‐galactosidase activity against WT SePdx [6] [%],decrease of β‐galactosidase activity against WT SePdx [7] [%],decrease of β‐galactosidase activity against WT SePdx [8] [%]
CpcA1 fused to T18C (pUT18C) (from UniProt P13530 1-163) (natural protein),65.1,40.3,46.3,67.6,60.8,,,
PSI core protein PsaE fused to T18C (pUT18C) (from UniProt Q31NL7 1-75) (natural protein),,,,,,3.19,27.2,12.2
